In PMC5323203:

Biological target: GST-Foxp1 fusion protein (mouse) (mouse) (UniProt P58462)
Experiment: pull-down; GST or GST-Foxp1 from bacterial extracts immobilised on GSH-agarose beads and washed; 1 ul of 35S-labelled in vitro translated Ikaros in 200 ul 0.02 M HEPES-KOH pH 7.9, 0.1% NP-40, 0.15 M NaCl, 1 mM DTT, 1 h at 4°C; quantified relative to input and to wild type (100%)

UniProt P58462, sequence (P58462 whole entry, the tested form may be a part): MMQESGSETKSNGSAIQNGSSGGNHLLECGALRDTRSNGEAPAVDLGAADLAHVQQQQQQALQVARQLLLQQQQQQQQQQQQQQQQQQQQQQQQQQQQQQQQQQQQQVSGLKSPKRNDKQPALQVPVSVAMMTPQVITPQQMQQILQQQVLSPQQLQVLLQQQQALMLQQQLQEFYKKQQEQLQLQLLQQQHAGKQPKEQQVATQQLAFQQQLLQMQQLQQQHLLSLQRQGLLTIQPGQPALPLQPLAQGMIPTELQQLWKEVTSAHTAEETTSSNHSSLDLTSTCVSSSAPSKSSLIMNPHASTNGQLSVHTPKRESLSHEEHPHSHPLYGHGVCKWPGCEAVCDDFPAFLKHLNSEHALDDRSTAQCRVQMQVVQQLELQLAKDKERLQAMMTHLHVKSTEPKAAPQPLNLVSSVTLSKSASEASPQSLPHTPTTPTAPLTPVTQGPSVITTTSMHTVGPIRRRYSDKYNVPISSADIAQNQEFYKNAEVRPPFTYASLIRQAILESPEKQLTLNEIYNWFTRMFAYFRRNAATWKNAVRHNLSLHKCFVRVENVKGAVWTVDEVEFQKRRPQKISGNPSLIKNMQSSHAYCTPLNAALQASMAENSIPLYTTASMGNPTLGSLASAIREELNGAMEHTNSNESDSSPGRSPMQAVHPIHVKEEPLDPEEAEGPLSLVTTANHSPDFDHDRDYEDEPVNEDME

| Substance | reduction relative to wild-type binding |
| --- | --- |
| IKΔ235-362 (mouse Ikaros deletion; in vitro translated) (domain or fragment) | 40% |
| IKΔC458 (mouse Ikaros deletion of the two C-terminal zinc fingers; in vitro translated) (domain or fragment) | 50% |
